In assay [1] the target is T1, human recombinant IL-8 (human, UniProt P10145 28-99).
T1 construct: also called hIL8; h-IL-8
T1 sequence (looked up): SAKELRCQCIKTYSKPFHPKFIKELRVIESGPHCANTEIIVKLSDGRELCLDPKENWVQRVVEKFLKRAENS
The experiment in a line: BIAcore SPR, IL-8 immobilized (134 RU surface), hybridoma supernatant as analyte. In general terms: SPR reads the build-up and loss of mass on a sensor chip optically.

Assay [2] has as its target T1, human recombinant IL-8. As to the kind of experiment: BIAcore SPR, IL-8 immobilized (81 RU surface), hybridoma supernatant as analyte.

This note sets out measurements from patent US6713610.

Broadly, the Kd is the constant that tells how readily two partners part at equilibrium. By koff is commonly meant the first-order rate constant of dissociation. A word on the kon: it is the rate constant with which the complex forms.

B1: I8K4.2 (antibody, V domains shown)
VH: SLTCAVYGGSFSGYYWTWIRQPPGKGLEWIGEIIHHGNTNYNPSLKSRVSISVDTSKNQFSLTLSSVTAADTAVYYCARGGAVAAFDYWGQGTLVTVSS
VL: TQSPSSLSASVGDRVTITCQASQDISNYLNWYQQKAGKAPKVLIYAASNLEAGVPSRFSGSGSGTDFTFTISSLQPEDIATYYCQHYDNLLTFGGGTKVEIKR
Regarding B1, in assay [1], the Kd was determined as 196 pM, the koff turned out to be 0.000384 s⁻¹ and the kon came out at 1.95e+06 M⁻¹ s⁻¹. For the same molecule, in assay [2], the Kd came to 142 pM, the koff was found to be 0.000817 s⁻¹ and the kon came out at 5.76e+06 M⁻¹ s⁻¹.
